Key:
Format in all cases: binding
[1] = Fluorescence enhancement of fluoro-labeled Fab complex / scFv with morphine; conditions: antigen Morphine 100 μg/mL versus absence of antigen
[2] = Fluorescence enhancement of fluoro-labeled Fab complex / scFv with methamphetamine; conditions: antigen Methamphetamine 100 μg/mL versus absence of antigen
[3] = Fluorescence enhancement of fluoro-labeled Fab complex with amphetamine; conditions: antigen Amphetamine 100 μg/mL versus absence of antigen
[4] = Fluorescence enhancement of fluoro-labeled Fab complex with MDMA; conditions: antigen MDMA 100 μg/mL versus absence of antigen
[5] = Fluorescence enhancement of fluoro-labeled Fab complex with MDA; conditions: antigen MDA 100 μg/mL versus absence of antigen
[6] = Fluorescence enhancement of fluoro-labeled Fab complex / scFv with cocaine; conditions: antigen Cocaine 100 μg/mL versus absence of antigen
[7] = Fluorescence enhancement of fluoro-labeled Fab complex / scFv with ketamine; conditions: antigen Ketamine 100 μg/mL versus absence of antigen

B1: Anti-Methamphetamine: same-color double-label Fab complex of anti-methamphetamine antibody; TAMRA-labeled VL (SEQ ID NO: 25) and VH (SEQ ID NO: 26) (antibody, V domains shown)
VH: QVQLQQSGPELVKPGASVKVSCKASGYPSTRFYIYWVKQSHGKSLEWIGNIDPYNGGTTYNQKFKGKATLTIDKSSTTAYVHLNSLTSEDSAVYYCAGFHYSGQLDTDVWGAGTKVTVSS
VL: DIVMTQSPAFMSASPGEKVTLTCSASSSVSSTFLYWYQQKPGSSPKLWIYSTSNLASGVPSRFSGSGSGTSYSLTINSMEAEDAASYFCHQWSNYPFTFGSGTKLEIKR
modifications: Fab; TAMRA labels; Meth-VH-26; Meth-VL-25
With B1 the “Fluorescence enhancement in the presence of 100 μg/mL antigen” value (“Fluorescence enhancement in the presence” for short) [1] was 0.9, the “Fluorescence enhancement in the presence” value [2] was 7.2 and the “Fluorescence enhancement in the presence” value [3] was 6.8. For the same molecule, the “Fluorescence enhancement in the presence” value [4] was 7.2, the “Fluorescence enhancement in the presence” value [5] was 5.6 and the “Fluorescence enhancement in the presence” value [6] was 1.0. The “Fluorescence enhancement in the presence” value [7] was 1.0.
